Values quoted from earlier work, collected in paper PMC10970614.

Legend:
[1] = biological target: glycophorin (Homo sapiens) (UniProt P02724)
[2] = biological target: integrin beta 3 cytoplasmic domain (Homo sapiens) (UniProt P05106); assay: SPR
[3] = biological target: integrin alpha X cytoplasmic domain (Homo sapiens) (UniProt P20702); assay: SPR
[4] = biological target: integrin alpha L cytoplasmic domain (Homo sapiens) (UniProt P20701); assay: SPR
[5] = biological target: integrin alpha M cytoplasmic domain (Homo sapiens) (UniProt P11215); assay: SPR
[6] = biological target: integrin beta 2 cytoplasmic domain (Homo sapiens) (UniProt P05107); assay: SPR
Chain of integrin beta 2 cytoplasmic domain (Homo sapiens) (P05107 724-769): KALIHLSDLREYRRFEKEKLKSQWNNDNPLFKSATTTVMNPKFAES

Chain of LtxA (P16462 whole entry): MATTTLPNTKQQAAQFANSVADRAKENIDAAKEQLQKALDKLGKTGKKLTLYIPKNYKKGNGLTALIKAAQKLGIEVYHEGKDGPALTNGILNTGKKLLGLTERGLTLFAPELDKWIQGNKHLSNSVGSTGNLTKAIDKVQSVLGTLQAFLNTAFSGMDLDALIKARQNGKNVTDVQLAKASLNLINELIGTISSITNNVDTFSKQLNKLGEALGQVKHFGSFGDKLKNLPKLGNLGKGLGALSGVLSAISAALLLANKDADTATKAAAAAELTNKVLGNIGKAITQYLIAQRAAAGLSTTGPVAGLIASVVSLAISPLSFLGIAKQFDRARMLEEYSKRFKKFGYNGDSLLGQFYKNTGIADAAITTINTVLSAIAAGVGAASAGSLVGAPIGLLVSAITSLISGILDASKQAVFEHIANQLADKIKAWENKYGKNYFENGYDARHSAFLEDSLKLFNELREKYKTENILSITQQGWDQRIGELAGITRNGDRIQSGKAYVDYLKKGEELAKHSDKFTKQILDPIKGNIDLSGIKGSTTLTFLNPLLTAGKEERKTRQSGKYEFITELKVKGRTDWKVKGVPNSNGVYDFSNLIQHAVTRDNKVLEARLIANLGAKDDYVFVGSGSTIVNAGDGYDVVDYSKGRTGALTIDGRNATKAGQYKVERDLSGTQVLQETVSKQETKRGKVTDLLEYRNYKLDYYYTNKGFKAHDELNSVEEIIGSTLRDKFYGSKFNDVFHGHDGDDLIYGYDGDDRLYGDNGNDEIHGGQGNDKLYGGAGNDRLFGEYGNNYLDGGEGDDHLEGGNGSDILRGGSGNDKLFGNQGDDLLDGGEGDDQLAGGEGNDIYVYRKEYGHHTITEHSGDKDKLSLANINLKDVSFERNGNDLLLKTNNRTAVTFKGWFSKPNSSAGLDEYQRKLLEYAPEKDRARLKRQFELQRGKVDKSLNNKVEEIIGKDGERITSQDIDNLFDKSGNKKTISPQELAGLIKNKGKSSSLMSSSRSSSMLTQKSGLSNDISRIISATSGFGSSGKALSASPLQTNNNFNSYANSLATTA
Chain of integrin alpha X cytoplasmic domain (Homo sapiens) (P20702 1129-1163): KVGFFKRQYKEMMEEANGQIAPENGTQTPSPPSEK
Chain of integrin beta 3 cytoplasmic domain (Homo sapiens) (P05106 742-788): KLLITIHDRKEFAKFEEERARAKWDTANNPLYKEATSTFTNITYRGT
Chain of HlyA (P08715 whole entry): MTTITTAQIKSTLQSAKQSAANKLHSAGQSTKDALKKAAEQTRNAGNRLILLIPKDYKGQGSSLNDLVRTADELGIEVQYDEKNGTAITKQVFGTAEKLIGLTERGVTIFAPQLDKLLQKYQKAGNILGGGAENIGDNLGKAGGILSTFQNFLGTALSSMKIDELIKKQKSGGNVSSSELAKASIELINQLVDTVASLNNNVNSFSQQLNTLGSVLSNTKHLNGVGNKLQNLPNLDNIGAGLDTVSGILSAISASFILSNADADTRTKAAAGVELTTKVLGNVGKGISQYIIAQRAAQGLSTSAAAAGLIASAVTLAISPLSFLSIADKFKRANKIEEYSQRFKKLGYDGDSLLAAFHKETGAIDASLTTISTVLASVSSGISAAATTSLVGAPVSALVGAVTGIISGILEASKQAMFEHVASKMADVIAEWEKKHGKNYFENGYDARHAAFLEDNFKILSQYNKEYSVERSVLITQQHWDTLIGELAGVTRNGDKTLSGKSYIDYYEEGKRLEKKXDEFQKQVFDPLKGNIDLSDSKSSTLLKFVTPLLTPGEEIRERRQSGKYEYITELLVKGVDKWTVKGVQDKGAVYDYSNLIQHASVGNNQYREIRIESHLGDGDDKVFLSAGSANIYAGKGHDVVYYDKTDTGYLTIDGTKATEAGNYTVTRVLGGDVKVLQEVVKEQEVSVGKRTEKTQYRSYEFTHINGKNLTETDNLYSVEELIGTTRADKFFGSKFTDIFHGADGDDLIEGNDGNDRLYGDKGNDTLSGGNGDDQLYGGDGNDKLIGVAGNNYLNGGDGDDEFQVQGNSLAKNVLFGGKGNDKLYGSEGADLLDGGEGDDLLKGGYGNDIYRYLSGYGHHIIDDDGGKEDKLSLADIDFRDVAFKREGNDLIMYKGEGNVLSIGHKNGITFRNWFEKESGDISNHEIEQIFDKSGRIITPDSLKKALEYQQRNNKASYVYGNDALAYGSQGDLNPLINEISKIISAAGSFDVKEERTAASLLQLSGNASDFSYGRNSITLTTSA
Chain of integrin alpha M cytoplasmic domain (Homo sapiens) (P11215 1129-1152): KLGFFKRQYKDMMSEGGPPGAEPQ
Chain of integrin alpha L cytoplasmic domain (Homo sapiens) (P20701 1112-1170): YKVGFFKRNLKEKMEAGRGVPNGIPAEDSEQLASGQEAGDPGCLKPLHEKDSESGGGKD

| Substance | Kd [1] | Kd [2] | Kd [3] | Kd [4] | Kd [5] | Kd [6] |
| --- | --- | --- | --- | --- | --- | --- |
| HlyA (from UniProt P08715) | 610 nM |  |  |  |  |  |
| LtxA (from UniProt P16462) |  | 230 nM | 180 nM | 15 nM | 400 nM | 4.2 nM |
